Measurements as given in patent CN111138531A (INST MILITARY MEDICINE ACADEMY MILITARY SCIENCES PLA, dated 2020).

Legend:
GP1 = GP1 (EBOV, UniProt Q05320 33-501); assay: ELISA on coated truncated GP, method as example 2
sGP = sGP (EBOV, UniProt Q05320 33-295); assay: ELISA on coated truncated GP, method as example 2
RESTV GP = target: T1, RESTV GP (RESTV, UniProt Q66799 34-651); assay: ELISA, coated GP 1 μg/mL, 1:3 dilution series of 8F9
T1 sequence: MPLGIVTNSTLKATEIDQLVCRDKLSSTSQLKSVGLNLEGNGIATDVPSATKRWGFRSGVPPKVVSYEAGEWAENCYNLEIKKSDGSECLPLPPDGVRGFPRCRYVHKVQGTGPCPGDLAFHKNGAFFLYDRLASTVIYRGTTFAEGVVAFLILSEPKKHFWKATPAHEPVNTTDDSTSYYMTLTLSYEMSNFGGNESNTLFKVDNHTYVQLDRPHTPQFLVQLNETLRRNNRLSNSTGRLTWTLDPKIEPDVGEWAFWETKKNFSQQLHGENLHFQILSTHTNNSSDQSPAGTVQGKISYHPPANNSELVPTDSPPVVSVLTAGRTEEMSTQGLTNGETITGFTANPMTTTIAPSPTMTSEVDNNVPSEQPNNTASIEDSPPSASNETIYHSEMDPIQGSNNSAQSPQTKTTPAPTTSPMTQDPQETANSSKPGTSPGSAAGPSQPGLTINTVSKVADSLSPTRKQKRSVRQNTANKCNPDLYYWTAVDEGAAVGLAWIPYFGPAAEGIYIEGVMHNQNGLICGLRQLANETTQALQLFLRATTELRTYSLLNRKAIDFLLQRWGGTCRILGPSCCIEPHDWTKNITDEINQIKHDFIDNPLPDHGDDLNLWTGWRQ

SUDV GP = target: T2, SUDV GP (SUDV, UniProt Q7T9D9 33-650); assay: as above
T2 sequence: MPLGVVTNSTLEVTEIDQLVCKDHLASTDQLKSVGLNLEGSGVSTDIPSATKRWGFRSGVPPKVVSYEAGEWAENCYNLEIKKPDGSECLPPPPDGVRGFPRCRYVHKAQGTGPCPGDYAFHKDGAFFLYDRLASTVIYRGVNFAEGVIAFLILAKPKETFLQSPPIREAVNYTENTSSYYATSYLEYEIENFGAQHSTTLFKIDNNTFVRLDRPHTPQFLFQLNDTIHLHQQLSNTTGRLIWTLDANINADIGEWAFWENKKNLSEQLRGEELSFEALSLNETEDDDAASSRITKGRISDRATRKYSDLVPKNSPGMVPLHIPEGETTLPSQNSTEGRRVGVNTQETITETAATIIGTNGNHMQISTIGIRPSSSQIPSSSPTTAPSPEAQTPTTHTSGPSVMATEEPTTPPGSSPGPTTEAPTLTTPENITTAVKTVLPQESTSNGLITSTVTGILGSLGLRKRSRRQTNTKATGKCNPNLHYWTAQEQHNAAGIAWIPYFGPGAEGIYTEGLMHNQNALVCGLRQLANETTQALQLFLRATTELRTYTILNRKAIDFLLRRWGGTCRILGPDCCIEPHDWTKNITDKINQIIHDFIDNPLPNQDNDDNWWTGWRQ

EBOV GP = target: T3, EBOV GP (EBOV, UniProt Q05320 33-650); assay: ELISA, coated GP 1 μg/mL, 1:3 dilution series of 8F9 from 10 μg/mL
T3 sequence: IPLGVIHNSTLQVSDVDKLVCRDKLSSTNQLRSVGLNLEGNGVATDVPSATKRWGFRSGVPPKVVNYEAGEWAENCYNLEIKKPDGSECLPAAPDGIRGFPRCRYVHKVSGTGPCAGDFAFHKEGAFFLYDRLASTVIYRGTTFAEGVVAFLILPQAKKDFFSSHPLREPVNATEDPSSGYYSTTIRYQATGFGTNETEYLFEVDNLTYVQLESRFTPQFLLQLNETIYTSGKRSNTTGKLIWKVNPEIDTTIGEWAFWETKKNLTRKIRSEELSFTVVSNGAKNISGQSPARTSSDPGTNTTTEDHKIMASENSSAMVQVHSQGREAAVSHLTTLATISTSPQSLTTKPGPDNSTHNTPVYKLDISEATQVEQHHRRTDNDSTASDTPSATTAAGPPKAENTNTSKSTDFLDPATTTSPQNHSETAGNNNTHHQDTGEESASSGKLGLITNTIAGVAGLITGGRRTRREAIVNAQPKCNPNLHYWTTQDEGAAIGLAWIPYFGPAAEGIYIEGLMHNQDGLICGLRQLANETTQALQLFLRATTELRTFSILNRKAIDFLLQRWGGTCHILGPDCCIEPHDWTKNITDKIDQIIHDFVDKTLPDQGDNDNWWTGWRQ

B1: 单克隆抗体8F9 (antibody, V domains shown)
VH: EVQLLESGGGLVQPGGSLRLSCAASEFTFSNYAMNWVRQAPGKGLEWVSGISTRGSSTYYADSVKGRFTISRDNSKNTLYLQMNSLRVEDTAVYYCAKDRLSVFGVVLISSDYYGMDVWGQGTTVTVSS
VL: AIRMTQSPFSLSASVGDRVTITCRASRTISSYLNWYQKKPGKAPKLLIYAASSLQSGVPSRFSGSGSGTDFTLTISSLQPEDFATYYCQQSYSTPMTFGQGTRLEIKT
EC50 (GP1): 9.5 ng/mL
EC50 (sGP): 8.8 ng/mL
binding result (RESTV GP): no binding (tested: 10μg/mL (highest concentration tested))
binding result (SUDV GP): no binding (tested: 10μg/mL (highest concentration tested))
EC50 (EBOV GP): 15 ng/mL
